Results on 2 molecules are retold here after patent CN113683686A (INST PASTEUR SHANGHAI CAS, dated 2021).

In test [1] the target is 重组的SARS-CoV-2 RBD蛋白 (S蛋白320-550位残基, 组氨酸标签) (SARS-CoV-2, UniProt P0DTC2 320-550). Description: BLI (Octet RED96), His-tagged RBD on Ni-NTA sensor, antibody in solution. Background: In BLI a coated tip is dipped into the sample, and binding shifts an interference pattern.
The target of test [2] is SARS-CoV-2 S蛋白 (on MLV-based SARS-CoV-2 pseudovirus) (SARS-CoV-2, UniProt P0DTC2 14-1273). Description: cell-based or functional assay.

B1: 单抗2H2 (anti-SARS-CoV-2 RBD mouse monoclonal antibody 2H2) (antibody, V domains shown)
VH: QVQLKQSGPSLVQPSQSLSITCTVSGFSLTSYGVHWVRQSPGKGLEWLGVMWRGGNTDYNAAFMSRLSITKDNSKSQVFFKMNSLQTDDTAIYYCAKNGGAHAMDFWGQGTSVTVSS
VL: NIVLTQSPASLAVSLGQRATISCRASESVDSYGNSFLHWYQQKPGQPPKLLIYLASNLESGVPARFSGSGSRTDFTLTIDPVEADDAATYYCQQNNEDPFTFGSGTKLEIK
For orientation: Kd means the constant that tells how readily two partners part at equilibrium. For the molecule B1, the Kd in test [1] was 7.5 nM. Also, the “半数抑制浓度(IC50), SARS-CoV-2假病毒中和试验 (VeroE6, luciferase)” value in test [2] came out at 0.005 µg/mL.

B2: 单抗3C1 (anti-SARS-CoV-2 RBD mouse monoclonal antibody 3C1) (antibody, V domains shown)
VH: EVQLQESGPSLVKPSQTLSLTCSVTGDSITNGYWNWIRKFPGNKLEYMGYISYSGSTYYSPSLKSRISITRDTSKNQHYLQLNSVTSEDTATYYCASDYHGSKYYFDYWGQGTTLTVSS
VL: DIVMTQSHKFMSTSVGHRVSITCKASQDVGNDVAWYQQKPGQSPKLLIYWASTRHTGVPDRFTGSGSGTDFTLTISNVQSEDLADYFCQQYNRYPYTFGGGTKLEIK
Molecule B2 yielded a Kd in test [1] of 13 nM. In addition, the “半数抑制浓度(IC50), SARS-CoV-2假病毒中和试验 (VeroE6, luciferase)” value in test [2] came to 1.91 µg/mL.
